In patent publication US20080226675A1:

How the values were obtained:
[1] = target: mutant A3G D128K, cmyc-tagged (human) (UniProt Q9HC16); test: cell-based or functional assay
[2] = target: Apolipoprotein B mRNA-editing enzyme-catalytic polypeptide-like 3G (A3G), wild type, cmyc-tagged (human) (UniProt Q9HC16); test: cell-based or functional assay

In the case of HIV-1 viral infectivity factor (Vif), the infectivity of HIV-GFP produced from D3GFPD128K-carrying 293T cells in the presence of HIV-1 Vif, percent of control [1] is reported as 1 % of control, the inhibition of HIV-GFP replication (GFP+ 293T cells by flow cytometry) by pD3GFPD128K in the presence of HIV-1 Vif [1] is reported as 90% and the infectivity of HIV-GFP produced from D3GFP-carrying 293T cells in the presence of HIV-1 Vif, percent of control [2] is reported as 89 % of control.
Work on “macaque simian immunodeficiency virus Vif (SIVmac Vif)” yielded a percent green fluorescent 293T cells after infection with D3GFPD128K vector produced in the presence of SIVmac Vif [1] of 26% and a percent green fluorescent 293T cells after infection with D3GFP vector produced in the presence of SIVmac Vif [2] of 24%.
